# According to the nanobody polyreactivity screen of Harvey et al. (2022):
# Assay: yeast display, Sf9 membrane polyspecificity reagent, FACS + sequencing; frameworks hold sequencing errors
# In short: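 Using colony PCR, genes from sorted yeast display clones were amplified, then sequenced on MiSeq at 2 × 250 and filtered by CDR length. The clones had been stained with 10% biotinylated, detergent-solubilized Sf9 membrane reagent for 1 hour at 4 °C and sorted by FACS into low and high (top ~1%) gates on anti-HA and streptavidin fluorescence. Polyreactivity labels come from the gate of origin.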
row,Sequence,polyreactivity (PSR sort gate)
1,QVQLVESRGGLVQAGGSLRLSCAASGRTIGLNAMGWYRQAPRKERELVASAITGGGDSTYYADSVKGRFTMSRDNAKNPVYLQMNSVKPEDTAVYYCAKRYSRGSQYDYWGQGTQVTVSS,high polyreactivity
2,QVQLVESRGGLVQAGGSLRLSCAASGSIFGANAMGWYRQEPGKEMELVAAISTRGGRTYYADSVKGRFTISRDNAKNTVYLQMISLKPEDTAVYYCATSGGRPYTYEYWGQGTQVTVSS,high polyreactivity
3,QVQLVESRGGLVQAGGSLRLSCAASGSIFGFYAMGWYRQAPGKERELVAAISSDGGSTYYADSVKGRFTISRDNAKNTVYLQMNSLKPEDTAVYYCAAAHGSIYDSTYYEYYYWGQGTQVTVSS,low polyreactivity
4,QVQLVESRGGLVQAGGSLRLSCAASGSIFGYYTMGWYRQAPGKDRELVAAISARGGRTYYADSVKGRFTISRDNAKNTVYLLMNSLKPEDTAVYYCAKRVYRRLYTGGQNPYDYWGQGTQVTVSS,high polyreactivity
5,QVQLVESRGGLVQAGGSLRLSCAASGSIFLYYARGWYIQAPGKERELDAAISISGGRTYYADSVKGRFTISRDNSKNTVYIQMNSLKPEDTAVYYCATKGYTGYAYRYGYWGQGTQVTVSS,high polyreactivity
6,QVQLVESRGGLVQAGGSLRLSCAASGSIFPVYAMGWYRQATGKERELVASISSSGGRTYYADSVKGRFTISRDNAKNTVYLQMNSLKPEDTAVYYCAAGAFHGVFWYEYWGQGTQVTVSS,high polyreactivity
7,QVQLVESRGGLVQAGGSLRLSCAASGSTFLNYAMGWYRQAPGKERELVAAISGSTTRTYYAESVKGRFTISRDNAKNTVYLQMNSLKPEDTAVYYCAATRGRGGRDDYWGQGSQVTVSS,high polyreactivity
8,QVQLVESRGGLVQAGGSLRLSCAASGSTFRIKAMGWYRQAPGNERELFAAIRASGTSTYYADSVKGRFTISRDNGQNTVYLLMIRLKPEDTAVDYCAASAQQPVLGLSYYYWGQGTQVTVSS,high polyreactivity
9,QVQLVESRGGLVQAGGSLRLSCAASGSTLYLYALGWYRQAPGKERELVAAISQSGTRTYYADSVKGRFTISRDNAKNTVYLQMNSQKPEDTAVSYCAAGRYQPYSYDYWGQGTQVTVSS,high polyreactivity
10,QVQLVESRGGLVQAGGSLRLSCAASGYTFDANAMGWYRQAPGKERELVASISSISDSTDYADSVKGRFTISRDNAKNTVYLQMNSLKPVDTAVYYCARSDVKPGRQERDYWGQGTQVTVSS,low polyreactivity
11,QVQLVESRGGLVQAGGSLRLSCACSGGIFVKSAMGCYRKAPCKERELVAAISKRGGRTYYADSVKGRFTISRDNAKNTVYLQMNSLKPEDTAVYYCYADVGVEYDYWGQGTQVTVSS,high polyreactivity
12,QVQLVESRGGLVQAGGSLRLSCPASGLIYVAYAMGWYRQAPGKERELVAAISRNGGSTYYADSVKGRFTISRDNAKNTVYLQMNSLKPEDTAVYYCAARYAYYTARYTQVKGLDYWGQGTQVTVSS,high polyreactivity
13,QVQLVESRGGLVQAGGSLRLTCAASGFIFKGYAMGWYRQEPGTERELVAAISYSGGNTYYADSVKGRFTISRDNAKNTVYLQMNSLKPEDTAVYYCAVRKRKVLGMYYWGQGTQVTVSS,high polyreactivity
14,QVQLVESRGVLVQAGGSLRLSCAASGRTFYYYAMGWYRQAPRKERELVAAINTRRTSTYYADSVKGRFTISRDNAKKTVYLQMNSLKPEDTAVYYCAVDPYGDSWEDWFRNYYYGYDYWGQGTQVTVSS,low polyreactivity
15,QVQLVESSGGLVQAGGSLRLSCAASGFIFPLYTMGWYRQAPAKERELVAAISVTGGSTYYADSVKGRFTISRDNAKNTVYLQMNSLKPEDTAVYYCNAYLFFLNRVCSFDYWGQGTQVTVSS,high polyreactivity
16,QVQLVESSGGLVQAGGSLRLSCAASGFSFKRYAMGWYRQAPGTERELVAAINSGGSTNYADSVKGRFTMSRDNAKNTVYLQMNSLKPEDTAVYSCAASTPQYQYYYWGQGTQVTVSS,high polyreactivity
17,QVQLVESSGGLVQAGGSLRLSCAASGLTFDGYAMGWYRQAPGKEREIVAAITQSGGSTYYADSVKGRFTISRDNAKNTVYLQMNSLKPVDTAVYYCAADGVLIHISYFRVVDGGEDHWGQGTQVNVSS,low polyreactivity
18,QVQLVESSGGLVQAGGSLRLSCAASGRTFTSNAMGWYRQAPGKERELVAAISNGGSTYYADSVKGRFTISRDNAKNTVYLQMNSLKPEDTAVYYCAAQYRVLWYSYYYWGQGTQVTVSS,high polyreactivity
19,QVQLVESSGGLVQAGGSLRLSCSASGRTFVWYDMGWYRQAPGKERELVAAITKRGTSTYYADSVKGRFTISRDNAKNTVYLQMNSLKPEDTAVYYCAVEYIYWFHCRSSFIYDYWGQGTQVTVSS,low polyreactivity
20,QVQLVESSGGLVQAGGSLRLTCAASGSTFTIYAIGWYRQAPRKERELVAVISSSGGSTYYADSVMGRFTISRDNAKNTVYLQMNSLKPEDTAVYYCAADTRYVGGYLTLYYWGQGTQVTVSS,low polyreactivity
21,QVQLVESVGCLVQAGGSLRLSCAASGSTFDYYAMGWYRQAPGKERELVAAITSTGRTYYADSVKGRFTISRDNAKNTVYLQMNSLKPEDTAVYYCAADLPWGPLFDYWGQGTQVTVSS,low polyreactivity
22,QVQLVESVGCLVQAGGSLRLSCASTGRTFTPYAMGWYRHRPGKESEFVPAIDTSGGSTYADSVKGRFTISRDNANNTVYLQMNSLKPEDTAVYYCATRGFYSWSYWYLWEYDYWGQGTQVTVSS,low polyreactivity

row,Sequence,polyreactivity (PSR sort gate)
1,QVQLVESVGCLVQAGGTLRLSCAATGRIFADYAMGWYRQAPGKERELVATITSGDRTYYADSVKGRFTTSRDNAKNTVYLQMNSLKPEDTAVYYCAAYKPWYVGLYPWYDYWGQGTQVTVSS,low polyreactivity
2,QVQLVESVGGLDQAGGSLPLSCAASGSTLAVYDMGWSRQAPGKESELVAAISTTGGRTYYADSVKGRFTISRDNSKNTVYLQMNRLKPEDTAVYYCNADAEDVIYYEYDYCGQGTQVTVSS,low polyreactivity
3,QVQLVESVGGLDQAGGSLRLSCAASGFTFYTNAMGWYRQAPGKEREFVAAISWSGTGTYYADSVKGRFTISRDNAKNTVYLQMYSLIPDDTAVYYCAARDRWRGGRKFDYWGQGTQVTVSS,high polyreactivity
4,QVQLVESVGGLLQAGGSLRLSCAASGSTFYNYAMGWYRQAPGKERELVAAIRNGGGTNYADSVKGRFTISRDNAKNTVYLQMNSLKPEDTAVYYCSTRLDWRRTYGYWGQGTQVTVSS,low polyreactivity
5,QVQLVESVGGLVHAGGSLRLSCAASGSIFTKNAMGWYRHAPGKERELVAAITGSGGSTYYADSVKGRFTISRDNAKNTVYLQMNSLKPEDTALYYCAANFVFWSGAVYTRYDYWGQGTQVTVSS,high polyreactivity
6,QVQLVESVGGLVQAGGRLRLSCAASGITFYSYTMGWYRQAPGKERELVAAISDNGGRTFYADSVKGRFTISRDNAKNTVYLQMNSLKPEDTAVYYCAASRRRAVDYWGQGTQVTVSS,low polyreactivity
7,QVQLVESVGGLVQAGGSLLLSCAAYGDISRYNTMGWYRQAPGKERELVPAITWSGGSTYADSVKGRFTISRDNAKNTVYLQMNSLKPEDTAVYYCAAGAYIWDNYSYRWYDYLGQGTQVTVSS,high polyreactivity
8,QVQLVESVGGLVQAGGSLRISCAASGRIFTHNVMGWYRQAPGKERELVAAISASGGSTYYADSVKGRFTISRDNAKNTVYLQMNSLKPEDTAVYYCNAGDYRTFYRRFDYWGQGTQVTVSS,low polyreactivity
9,QVQLVESVGGLVQAGGSLRLICAASGSIFLDNAKGCYRQAPVKERELVSAISWGGGSTYYADSVKGRFTISRDNAKNTVYVQMNSLKPEDTAVYYCAAESYYYIRYFDYSRWMGYWGQGTQVTVSS,low polyreactivity
10,QVQLVESVGGLVQAGGSLRLICACSGLNFVSYAMGWYRQAPGKERELVAAINSRGSRTYYADSVKGRLTISRDNAKNTVYLQMNSLKPEDTALYYCAAGVIRYGGKEEYYYWGQGTQVTVSS,high polyreactivity
11,QVQLVESVGGLVQAGGSLRLSCAASGFILAVYVLGWYRQAPGKERELVAAISWSGGSTYYADSLKGRFTISRDNAKNTVYFKMNRLKPEYTAVYSCNTVAKSPVKYDYWGQGTQVTVSS,high polyreactivity
12,QVQLVESVGGLVQAGGSLRLSCAASGFTFRKYAMGWYRQAPGKERELVAGISWSGGTTYYADSVKGRFTISRDNAKNTVYLQMNSLKPEDTAVYYCNAKRVQVFAGYSYDYWGQGTQVTVSS,high polyreactivity
13,QVQLVESVGGLVQAGGSLRLSCAASGFTFSPNARGSYRQAPGKERELVAAIDWSGDRTYYADSVKGRFTISRDNAKNTVYLQMNILKPEDTAVYYCKVVRRSPGDYSYYYWGQGTQVTVSS,low polyreactivity
14,QVQLVESVGGLVQAGGSLRLSCAASGFTFSTNAMGWYRQAPGKERELVAAISRGGSTNYADSVKGRFTISRDNAKNTVYLQMNSLKPEDTAVYYCNAYLSPDEEEYYWGQGTQVTVSS,low polyreactivity
15,QVQLVESVGGLVQAGGSLRLSCAASGGTFGYNAMGWYRQAPGKERELVAAIRVNGGSTYYADSVKGRFTISRDNAKNTVYLQMNSLKPEDTAVYYCAAESRVYRTSYWYGYWGQGTQVTVSS,high polyreactivity
16,QVQLVESVGGLVQAGGSLRLSCAASGIIFSYYAMGWYRQPPGKERELVAVISSGGGSTYYADSVKGRFTISRDNAKNTVYLQMNSLKPDDTAVYYCNADRVDRELFTFDYWGQGTQVTVSS,high polyreactivity
17,QVQLVESVGGLVQAGGSLRLSCAASGIIFWLSTMGWYRQAPGKERELVAAITSGGSTYYADSVKGRLTISRDNAKNTVYLQMNSLKQEDTALYYCAAVPRYRRWKYDYWGQGTQVTVSS,high polyreactivity
18,QVQLVESVGGLVQAGGSLRLSCAASGITFYSYDMGWYRQAPGKERELVAAITYRGGSTYYADSVKGRFTISRDNAKNTVYLQMNSLKPEDTAVYYCNADLLPADAPLWVTGGDYWGQGTQVTVSS,low polyreactivity
19,QVQLVESVGGLVQAGGSLRLSCAASGLIFAYYAMGWYRQAPGKERELVAAISWTGGSTYYADSVKGRFTISRDNAKNTVYLQMNSLKPEDTAVYYCNTVGKPGFYSWGQGTQVTVSS,high polyreactivity
20,QVQLVESVGGLVQAGGSLRLSCAASGLTFGGNAMGRYRQAPGKVRELVAAISGSGGRTYYADSVKGRFTISRDNAKNTVYLQMNSLKPEDTAVYYCNAATKRRTSDYWGQGTQVTVSS,high polyreactivity
21,QVQLVESVGGLVQAGGSLRLSCAASGLTFGSYAMGWYRQAPGTDRELVAGINQSGGSTYYADSVKGRFTISRDNAKNTVSFQMNSLNPEDTAVYYCNAEAWVSQDWWQWVAYVYWGQGTQVTVSS,high polyreactivity
